Numbering of substitutions follows the chain as printed. Names and notes keep the numbering of the source.

The chains are these.
B1: CD8S367 (designed binder)
chain: LPAPKNLVVSRVTEDSARLSWTAPDAAFDSFAIAYPEWPPQGEAIVLTVPGSCRSYDLTGLKPGTEYFVVIYGVKGGSYSAPLSAIFTT
notes: P282DR9P1359_F7 with E54C; the entry holds the mutation
B2: CD8S368 (designed binder)
chain: B1 chain with A32Q, Q41P, V70I, Y72Q, S78V, Y79E, A81W
notes: P282DR9P1359_F5 with E54C; the entry holds the mutation
B3: CD8S365 (designed binder)
chain: LPAPKNLVVSRVTEDSARLSWTAPDAAFDSFGILYYEPVDSGEAITLPVPGSCRSYDLTGLKPGTEYWVVITGVKGGAPSTPLGTIFTT
notes: P282ER9P1360_C8 with E54C; the entry holds the mutation
B4: CD8S366 (designed binder)
chain: LPAPKNLVVSRVTEDSARLSWTAPDAAFDSFWITYPEWPDPGGEAIVLTVPGSCRSYDLTGLKPGTEYFVVIYGVKGGEIYSPLSAIFTT
notes: P282DR9P1359_C5 with E54C; the entry holds the mutation
B5: P282DR9P1359_F7 (designed binder)
chain: B1 chain with C53E
notes: FN3 domain (Centyrin); purified as His-tagged protein, tag not in the entry
B6: P282DR9P1359_G7 (designed binder)
chain: LPAPKNLVVSRVTEDSARLSWTAPDAAFDSFAITYIEKEHIEDGEAIVLTVPGSERSYDLTGLKPGTEYWVPIWGVKGGANSWPLSAIFTT
notes: as for B5
B7: P282ER9P1360_C8 (designed binder)
chain: B3 chain with C53E
notes: as for B5
B8: P282DR9P1359_C5 (designed binder)
chain: B4 chain with C54E
notes: as for B5
B9: CD8S370-DFO (designed binder)
chain: B6 chain with E55C
modifications: deferoxamine (DFO) conjugated to the free cysteine introduced by E54C
notes: DFO conjugate of CD8S370
B10: CD8S369-DFO (designed binder)
chain: LPAPKNLVVSRVTEDSARLSWAKRPGAFDSFLIQYQESEKVGEAIVLTVPGSCRSYDLTGLKPGTEYTVSIYGVDVKYDIDSRPISSNPLSAIFTT
modifications: deferoxamine (DFO) conjugated to the free cysteine introduced by E54C
notes: DFO conjugate of CD8S369
B11: CD8S365-DFO (designed binder)
chain: B3 chain
modifications: deferoxamine (DFO) conjugated to the free cysteine introduced by E54C
notes: DFO conjugate of CD8S365
B12: P283AR9P1362_D6 (designed binder)
chain: B10 chain with C53E
notes: as for B5

One test deals with T1, cynomolgus monkey CD8A on cyno CD8+ T cells (cynomolgus monkey, UniProt P01732 23-235 (human entry)).
T1 construct: also called cyno T-cells; Cyno CD8alpha
T1 sequence (P01732 other isoform, or with tags, fused parts or gaps limits assumed): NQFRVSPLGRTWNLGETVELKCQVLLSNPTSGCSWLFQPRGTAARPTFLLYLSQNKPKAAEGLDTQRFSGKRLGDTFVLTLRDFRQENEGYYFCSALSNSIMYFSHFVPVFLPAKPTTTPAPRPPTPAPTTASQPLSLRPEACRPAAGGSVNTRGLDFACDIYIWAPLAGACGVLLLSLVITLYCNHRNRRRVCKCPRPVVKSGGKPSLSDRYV
The test can be described thus: flow cytometry on cyno CD8+ T cells. As to the method: (§1) A full dose response binding curve was generated for the nineteen selected anti-CD8A FN3 domains. Each candidate was diluted to 20 μM in PBS followed by a 1:3 dilution series to generate either an 11-point or an 18-point dose response curve. Human or cyno CD8+ T cells were incubated with the diluted FN3 domain for 1 hour at 4° C. Cells were washed once with PBS and incubated with an anti-centyrin antibody (PAB25) for 1 hour at 4° C. The cells were washed twice with PBS, followed by incubation with a PE-secondary, anti-CD3-PacB, anti-CD4-APC, and a viability dye. Finally, cells were washed and resuspended in PBS for flow cytometric analysis using a BD Canto Instrument. CD8 T cells were defined as live CD3+CD4− cells. Median fluorescence intensity of the bound Centyrins (PE channel) and % of cells showing positive staining calculated using Cytobank software. Results were graphed using Prism and EC₅₀ values were calculated using the 4 parameter dose response variable slope equation.
Background: A flow cytometer gives signals particle by particle.
Take B1: the midpoint of the response, the EC50, lay at 50.8 nM.

B2 yielded a concentration for a half-maximal effect (EC50) of 70 nM.

For B3, it took 124 nM to reach a half-maximal effect (EC50).

As to B4, a half-maximal response (EC50) required 69.5 nM.

In another test the target is T2, human CD8A on primary human CD8+ T cells (human, UniProt P01732 22-235).
T2 construct: whole, on cells; also called Human T-cells; CD8 alpha
T2 sequence (P01732 22-235): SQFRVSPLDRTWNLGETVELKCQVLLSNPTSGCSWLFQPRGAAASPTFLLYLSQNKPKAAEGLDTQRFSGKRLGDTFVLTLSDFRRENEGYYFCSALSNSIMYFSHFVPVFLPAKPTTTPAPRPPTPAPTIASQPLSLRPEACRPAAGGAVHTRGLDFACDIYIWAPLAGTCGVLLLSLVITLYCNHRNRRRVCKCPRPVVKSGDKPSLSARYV
As to the kind of experiment: flow cytometry on human CD8+ T cells. As to the method:
as §1
Regarding B1, it took 194 nM to reach a half-maximal effect (EC50).

As to B2, the concentration for a half-maximal effect (EC50) is 155 nM.

In turn, B3 displayed an EC50 of 556 nM.

Regarding B4, the 50% effective concentration (EC50) amounted to 163 nM.

The target of the next test is T3, human CD8A-Fc (recombinant human CD8 alpha fused to Fc fragment of human IgG1) (human, UniProt P01732 22-182, limits assumed).
T3 construct: SPR ligand, captured by goat anti-human Fc; also called hCD8A-Fc; recombinant CD8 alpha; not shown: linker with flag (and polyhistidine) tag and Fc fragment of human IgG1; depends on which of the two constructs was used
T3 sequence (P01732 22-182 limits assumed): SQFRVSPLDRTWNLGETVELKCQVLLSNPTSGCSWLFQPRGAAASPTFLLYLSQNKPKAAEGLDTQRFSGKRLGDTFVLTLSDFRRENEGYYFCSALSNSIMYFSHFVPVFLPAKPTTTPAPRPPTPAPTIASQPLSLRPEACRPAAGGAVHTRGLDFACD
As to the kind of experiment: SPR, dissociation rate on recombinant CD8 alpha. (In general: SPR reads the build-up and loss of mass on a sensor chip optically.)
Regarding B5, the off-rate constant (koff) was 0.000339 s⁻¹.

On to B6, for which the dissociation rate constant (koff) was 1.06e-05 s⁻¹.

In the case of B7, the koff stood at 0.000179 s⁻¹.

With B8, the off-rate constant (koff) was determined as 0.000147 s⁻¹.

The target in the next test is T2, human CD8A on primary human CD8+ T cells. As to the kind of experiment: MSD-CAT equilibrium cell binding, primary human CD8 T cells. As to the method:
A MesoScale Discovery-Cell Affinity Technology (MSD-CAT) based equilibrium cell-binding assay was performed to determine the affinity of the top six anti-CD8A candidates binding to primary human cytotoxic T cell surface CD8A receptors. Each anti-CD8A FN3 domain at a constant concentration of […] was pre-incubated with 10 different concentrations of primary cytotoxic CD8 T cells (columns 2-11 in a row). Cell viability was checked prior to the binding measurements and a >85% viability was desired for valid analysis. Since these cells were from different donors, in case of donor-to-donor variations, only cells of the same donors were combined together. Each individual anti-CD8A FN3 domain binding was measured in replicates using cells from the same donors. Cells and FN3 domains were incubated overnight at 4° C. on a rotator to reach equilibrium. Following the incubation the cells were spun down along with cell bound anti-CD8A FN3 domains and the unbound (free) anti-CD8A FN3 domains in the supernatants is quantified using MSD assays where biotinylated recombinant hCD8A-Fc protein was captured at 0.6 ug/mL in assay buffer to streptavidin MSD plates overnight ˜16 hours at 4° C. After blocking the plate, supernatant with free anti-CD8A FN3 domains was added to the plate and incubated for 1 hr, then followed by SulfoTag pAb139 (In-house) detection at 1.6 ug/ml. A buffer control without any FN3 domain and hCD8A (plate background binding control) in column 1 and FN3 domain alone control without hCD8A (100% free/unbound) in column 12 were included. Mouse Anti-hCD8A mAb (mIgG1k, BD Biosciences, cat #555364, clone RPA-T8) was included as a positive control. Tencon27 was included in the initial assay validation as a negative control and no significant binding was observed, and therefore, was not included in the later cell binding due to the cell availability. Plates were read immediately on the MSD Sector Imager 6000™ Reader for luminescence levels after adding MSD Read Buffer by diluting 1:4 of stock into H2O.
Raw MSD data were exported and analysed in Prism using a non-linear fit with variable slope function to derive the Bmax and Hillslope values. Only those with converged Bmax values and hillslope within the range of −1.5˜−0.5 (ideal −1.0) will be considered for further analysis.
B1: the equilibrium dissociation constant (Kd) was determined as 0.225 nM.

As to B2, the affinity, expressed as Kd, was 0.459 nM.

B3: the Kd was determined as 0.167 nM.

Turning to B4, the Kd stood at 0.123 nM.

The next test addresses T3, human CD8A-Fc (recombinant human CD8 …). The test can be described thus: SPR on recombinant human CD8 alpha after DFO conjugation, lower affinity population. How it is done: (§2) Data analyses were performed using Bio-Rad ProteOn Manager software (version 3.1.0.6). Raw data were double referenced by subtraction of the interspot (empty chip surface, no protein immobilized or captured) signals to correct the non-specific binding of the FN3 domain to the pre-coated GAH-Fc IgG surface, followed by a double referencing using the buffer blank response (to correct for any baseline drift resulting from ligand dissociation over time). […] Given that the GAH-Fc capture of hCD8A-Fc format is the least disruptive relative to other formats in introducing potential experimental artifacts (such as ligand activity loss and/or artificial eptiopes/heterogeneous ligand population due to amine coupling), it is considered that the results from the GAH-Fc capture experiments reported here represent the most reliable ProteOn SPR data, despite the non-conforming 1:1 Langmuir fits observed in many instances. A heterogeneous ligand model was chosen to fit the data assuming two different ligand species, either due to the heterogeneity in the ligand protein population or due to potential different mechanisms for each FN3 domain binding to the 2 hCD8A monomers in the Fc fusion protein. In this case, because each anti-CD8A FN3 domain would have separate affinities, the resultant sensorgram reflects the sum of two independent reactions with two sets of rate constants, which were reported for each FN3 domain binding.
(§3) Following conjugation to DFO, the binding of each anti-CD8A FN3 domain to recombinant human CD8 alpha was assessed by surface plasmon resonance as previously described. All samples retained tight binding to human CD8A following mutation of E54 to Cys and conjugation to DFO (Table 8).
With B9, the equilibrium dissociation constant (Kd) turned out to be 13 nM, the koff is 7.65e-05 s⁻¹ and the on-rate constant (kon) turned out to be 5910 M⁻¹ s⁻¹.

In the case of B10, the Kd is ≤ 3.4 nM, the koff was ≤ 1e-05 s⁻¹ and the kon was determined as 2870 M⁻¹ s⁻¹.

Take B11: the equilibrium dissociation constant (Kd) is 9.73 nM, the off-rate (koff) is 4.29e-05 s⁻¹ and the kon was found to be 4410 M⁻¹ s⁻¹.

For a further test the target is unchanged. The test can be described thus: SPR on recombinant human CD8 alpha after DFO conjugation, higher affinity population. How it is done:
as §2, §3
As for B9, the Kd was ≤ 0.3 nM, the koff is ≤ 2e-05 s⁻¹ and the kon came out at 46400 M⁻¹ s⁻¹.

Take B10: the Kd is ≤ 0.3 nM, the koff was ≤ 1e-05 s⁻¹ and the kon came to 37300 M⁻¹ s⁻¹.

As for B11, the equilibrium dissociation constant (Kd) amounted to 0.6 nM, the koff amounted to 4.18e-05 s⁻¹ and the kon came out at 68000 M⁻¹ s⁻¹.

The next test shares this target. The test can be described thus: SPR (ProteOn), captured hCD8A-Fc, heterogeneous ligand fit, lower affinity population. As to the method:
as §2, with “Human CD8A-Fc was then captured at five surface densities ranging from 200 to 1200 response units, leaving the 6th channel as empty channel control for GAH-Fc IgG surface. Binding was measured by flowing five different concentrations of anti-CD8A FN3 domains (1 μM diluted in a 3-fold dilution series) as analytes simultaneously in the horizontal orientation over the captured hCD8A-Fc surfaces, with a sixth analyte channel containing only running buffer PBST. All interactions were measured at 100 uL/min flow rate with association and dissociation times being 4, 30 minutes respectively. […] Data” for “Data”, “protein.” for “protein. In this case, because each anti-CD8A FN3 domain would have separate affinities, the resultant sensorgram reflects the sum of two independent reactions with two sets of rate constants, which were reported for each FN3 domain binding.”
Regarding B5, the Kd was found to be 12 nM, the off-rate (koff) came out at 0.000365 s⁻¹ and the kon came out at 40300 M⁻¹ s⁻¹.

Regarding B6, the Kd worked out at 2.1 nM, the koff came to 5.51e-05 s⁻¹ and the on-rate constant (kon) was 68400 M⁻¹ s⁻¹.

Take B12: the equilibrium dissociation constant (Kd) was found to be 0.98 nM, the koff was found to be 3.12e-05 s⁻¹ and the on-rate (kon) was determined as 56200 M⁻¹ s⁻¹.

On to B7, for which the equilibrium dissociation constant (Kd) turned out to be 4.1 nM, the koff was 9.52e-05 s⁻¹ and the on-rate constant (kon) is 30900 M⁻¹ s⁻¹.

As for B8, the dissociation constant Kd was found to be 6.5 nM, the off-rate constant (koff) is 0.000127 s⁻¹ and the kon was found to be 19200 M⁻¹ s⁻¹.

Another test has the same target. The test can be described thus: SPR (ProteOn), captured hCD8A-Fc, heterogeneous ligand fit, higher affinity population. As to the method:
as §2, with “Human CD8A-Fc was then captured at five surface densities ranging from 200 to 1200 response units, leaving the 6th channel as empty channel control for GAH-Fc IgG surface. Binding was measured by flowing five different concentrations of anti-CD8A FN3 domains (1 μM diluted in a 3-fold dilution series) as analytes simultaneously in the horizontal orientation over the captured hCD8A-Fc surfaces, with a sixth analyte channel containing only running buffer PBST. All interactions were measured at 100 uL/min flow rate with association and dissociation times being 4, 30 minutes respectively. […] Data” for “Data”, “protein.” for “protein. In this case, because each anti-CD8A FN3 domain would have separate affinities, the resultant sensorgram reflects the sum of two independent reactions with two sets of rate constants, which were reported for each FN3 domain binding.”
Regarding B5, the equilibrium dissociation constant (Kd) was 0.5 nM, the koff is 7.99e-05 s⁻¹ and the kon worked out at 404000 M⁻¹ s⁻¹.

With B6, the dissociation constant Kd is 0.05 nM, the dissociation rate constant (koff) was 1.49e-05 s⁻¹ and the kon stood at 276000 M⁻¹ s⁻¹.

On to B12, for which the dissociation constant Kd turned out to be 0.03 nM, the off-rate constant (koff) came out at 1e-06 s⁻¹ and the kon was found to be 155000 M⁻¹ s⁻¹.

With B7, the dissociation constant Kd is 0.2 nM, the koff is 4.71e-05 s⁻¹ and the association rate constant (kon) is 218000 M⁻¹ s⁻¹.

Regarding B8, the Kd amounted to 0.02 nM, the off-rate (koff) amounted to 5.79e-06 s⁻¹ and the kon was 300000 M⁻¹ s⁻¹.

In general, EC50 refers to the concentration giving half of the maximal effect. A word on the koff: it is a measure of how fast the partners let go of each other. One may read the Kd as a measure of binding affinity in units of concentration. The term kon denotes a measure of how fast the partners come together.

Values taken from US20210032312A1 (Janssen / Centocor, published 2021).
